Usually Kd stands for a measure of binding affinity in units of concentration.

One molecule from US20190316116A1 (MONASH UNIVERSITY, published 2019) can be followed below.

The target in the experiment is lysozyme (UniProt P00698 19-147). Description: method not stated (data not shown).
Chain of lysozyme (P00698 19-147 limits assumed): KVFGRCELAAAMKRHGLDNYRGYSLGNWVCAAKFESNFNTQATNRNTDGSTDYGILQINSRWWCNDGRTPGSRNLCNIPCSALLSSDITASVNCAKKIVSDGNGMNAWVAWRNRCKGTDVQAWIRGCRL

B1: FN3con.DE0.4.1_graft_v1 (designed binder)
chain: PSPPGNLRVTDVTSTSVTLSWRGYPWATGYRVEYREAGGEWKEVTVPGDLSHRYTVTGLKPGTEYEFRVRAVNRVGRTFDTPGPSSVSVTT
notes: Made by gene synthesis, expressed in E. coli and purified; also called the designed graft; the graft
On to B1, for which the dissociation constant Kd was approximately 100 µM.
